{"source": "paper PMC3999280", "molecular_target": "LdtRLas ('Candidatus Liberibacter asiaticus', UniProt A0ABN4AZS1 1-171)", "experiment": "competition", "details": "protein: recombinant; tags: N-terminal His6 removed by TEV; chain copies: 2; label: none; blunt"}
{"binder": "CD-3 (dsDNA) DNA 1: TCTTCTAATATTCCTTGTATTTTAATTATGTTCGAATTTTATTTT DNA 2: AAAATAAAATTCGAACATAATTAAAATACAAGGAATATTAGAAGA", "values": [{"measurement": "binding result", "value": "binds"}]}
